We go through one molecule from patent US8173771B2, “Humanin receptor or humanin-like polypeptide receptor” (Keio Univeristy, priority 2005, dated 2012).

The assay concerns the target T1, G-CSFR/gp130 chimera proteins (Homo sapiens, UniProt P40189+Q99062).
T1 construct: the extracellular domain of the human G-CSF receptor fused to the full transmembrane domain; expressed in transfected cells; host or cells: F11 cells
T1 sequence (Q99062+P40189 with tags, fused parts or gaps): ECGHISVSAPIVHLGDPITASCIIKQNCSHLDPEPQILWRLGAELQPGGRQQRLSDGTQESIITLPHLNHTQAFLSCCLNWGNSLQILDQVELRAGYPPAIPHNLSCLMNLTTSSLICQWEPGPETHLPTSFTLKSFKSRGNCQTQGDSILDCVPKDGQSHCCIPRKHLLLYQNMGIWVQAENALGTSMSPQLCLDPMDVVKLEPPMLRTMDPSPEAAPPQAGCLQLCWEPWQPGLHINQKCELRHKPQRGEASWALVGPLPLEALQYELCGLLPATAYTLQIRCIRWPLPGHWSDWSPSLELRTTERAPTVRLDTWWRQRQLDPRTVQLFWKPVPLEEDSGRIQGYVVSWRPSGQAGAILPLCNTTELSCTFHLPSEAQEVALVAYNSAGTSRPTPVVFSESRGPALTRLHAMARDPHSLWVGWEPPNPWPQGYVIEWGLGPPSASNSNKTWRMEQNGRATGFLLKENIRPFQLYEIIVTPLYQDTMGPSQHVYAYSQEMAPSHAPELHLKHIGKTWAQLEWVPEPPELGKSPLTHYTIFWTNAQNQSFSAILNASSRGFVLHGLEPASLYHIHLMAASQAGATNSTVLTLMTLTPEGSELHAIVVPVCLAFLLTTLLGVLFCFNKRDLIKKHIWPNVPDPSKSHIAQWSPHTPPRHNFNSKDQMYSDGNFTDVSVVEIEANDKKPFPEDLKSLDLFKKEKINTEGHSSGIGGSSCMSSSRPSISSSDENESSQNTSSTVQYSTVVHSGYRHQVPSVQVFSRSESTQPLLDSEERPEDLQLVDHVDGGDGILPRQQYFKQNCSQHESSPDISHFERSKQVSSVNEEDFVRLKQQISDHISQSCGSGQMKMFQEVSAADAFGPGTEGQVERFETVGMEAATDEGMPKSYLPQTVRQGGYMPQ
The assay is described as follows: G-CSF stimulation of G-CSFR/gp130 chimera proteins in F11 cells, cell mortality by Trypan blue exclusion. The format is cell-based. The conditions noted are these: 100 nM; G-277 expressed. Here is the method:
B) F11 cells were transfected with 0.5 μg of the pcDNA3 vector or pcDNA3-APP in association with 0.5 μg of the pEFBos vector or the pEFBos vectors encoding the extracellular domain of the human G-CSF receptor fused to the full transmembrane domain and a C-terminally truncated intracytoplasmic domain of gp130 (named “G-CSFR/gp130”). G-CSFR/gp130 (277) contains the full intracytoplasmic domain of gp130 corresponding to amino acids 1-277, while G-CSFR/gp130 (25), (68), and (133) contain the intracytoplasmic domains corresponding to amino acids 1-25, 1-68, and 1-133, respectively. At 24 hr after transfection, the cells were added with indicated amounts of human G-CSF. Cell mortality was determined by Trypan blue exclusion assay at 72 hr after transfection. The results of immunoblot analysis of the expression of […] are shown in photos.
C) Instead of the pcDNA3-V6421-APP vector, pcDNA3-K595 N/M596L-APP (NL-APP), M146L-PS1 and N141-I-PS2 vectors were used to do the same experiments as in FIG. 2A. The results of immunoblot analysis of the expression of NL-APP, M146L-PS1 and N141-I-PS2 are shown in photos.
D) F11 cells were transfected with 0.5 μg of the pEFBos vector or pEF-G85R-SOD1 in association with 0.5 μg of the pEFBos vector or each pEFBos vector encoding G-CSFR/gp130 (277) or G-CSFR/gp130 (25). At 24 hr after transfection, the cells were added with indicated amounts of human G-CSF. Cell mortality was determined by Trypan blue exclusion assay at 72 hr after transfection. The results of the expression of G85R-SOD1, which were confirmed by the immunoblot analysis, are shown in photos.
Neurohybrid F11 cells and pcDNA3 vectors encoding V642I-APP, K595N/M596L-APP (NL-APP), M146L-PS1, and N141I-PS2 cDNA were prepared as already described (Hashimoto et al, 2000, 2001a, 2003). pCAG-human gp130 and pCAG-human gp130 ED (the extracellular domain of human gp130) were prepared as described (Kumanogoh et al., 1997). pcDNA3 vectors encoding the extracellular domain of the G-CSF receptor fused to the full-length transmembrane domain and various portions of the intracellular domains of human gp130, were prepared as described (Fukada et al, 1996). The intracellular domain of gp130 was C-terminally truncated. A chimera protein named G-277 contained a 277 amino acid-long full intracellular domain of gp130 (SEQ ID NO:35), while G-195, G-133, G-68, and G-25 contained the amino acids 1-195 (SEQ ID NO:36), 1-133 (SEQ ID NO:37), 1-68 (SEQ ID NO:38), and 1-25 (SEQ ID NO:39) intracellular portions, respectively. C-terminally myc-tagged human WSX-1 and myc-tagged mouse CREME9 cDNAs were amplified from human and mouse embryo cDNA (BioChain) by PCR using sets of sense primers and antisense primers: 5′-[…]-3′ (SEQ ID NO:3) and 5′-[…]-3′ (SEQ ID NO:4) for human WSX-1; 5′-[…]-3′ (SEQ ID NO:5); and 5′-[…]-3′ (SEQ ID NO:6) for mouse CREME9. Plasmids encoding C-terminally V5-tagged human CNTF-R (V %-CNTF-R) and rat IL-6R (pUCM18-rat IL-6R) were purchased from Invitrogen and American Culture Collection, respectively. A pEFBos vector comprising familial ALS (FALS) gene G85R-SOD1 was kindly provided by Dr. Shoji Tsuji. Cosmid of human wild […] was constructed by inserting a full-length gp130 into a SwaI site of pAxCAwt (TaKaRa).
The transfection procedures were as described (Hashimoto et al, 2000, 2001a, 2003). F11 cells, seeded at 7×10^4/well in 6-well dishes, were transfected with indicated vectors. Transfection efficiency in these protocols has been determined to be invariably around 70%. At 72 hrs after transfection, the Trypan blue exclusion assay and LDH assay were performed as a cell-death assay and the WST-8 assay was performed as cell-viability assays (Hashimoto et al, 2000, 2001a b, 2003). HN was added to the culture medium usually at 5 hrs after transfection, but in some cases at 24 hrs after transfection.

B1: G-CSF: human G-CSF, ligand stimulating G-CSFR/gp130 chimera proteins (protein, UniProt P09919 31-207, looked up)
Granulocyte …: TPLGPASSLPQSFLLKCLEQVRKIQGDGAALQEKLVSECATYKLCHPEELVLLGHSLGIPWAPLSSCPSQALQLAGCLSQLHSGLFLYQGLLQALEGISPELGPTLDTLQLDVADFATTIWQQMEELGMAPALQPTQGAMPAFASAFQRRAGGVLVASHLQSFLEVSYRVLRHLAQP
As to B1, the “prevention of NL-APP-, M146L-PS1-, N141I-PS2-mediated neuronal cell death” value was “prevented” and the “prevention of neuronal cell death induced by V642I-APP” value was “prevented”.
